Patent US20040137588A1 (published 2004)

B1: purified refolded dimeric VEGF-B167 (ligand, human, UniProt P49765-2 22-188, looked up, not shown: small tags and cut ends)
chain: PVSQPDAPGHQRKVVSWIDVYTRATCQPREVVVPLTVELMGTVAKQLVPSCVTVQRCGGCCPDDGLECVPTGQHQVRMQILMIRYPSSQLGEMSLEEHSQCECRPKKKDSAVKPDSPRPLCPRCTQHHQRPDPRTCRCRCRRRSFLRCQGRGLELNPDTCRCRKLRR
notes: mature

Tests used:
[1] = target: chimeric receptor consisting of the extracellular and membrane domain of VEGFR1 fused to the cytoplasmic domain of gp130, on 293A12 cells (UniProt P17948); test: cell-based or functional assay
chimeric receptor consisting of the extracellular and membrane domain of VEGFR1 fused to the cytoplasmic domain of gp130, on 293A12 cells, sequence (P17948 other isoform, or with tags, fused parts or gaps mutant limits assumed): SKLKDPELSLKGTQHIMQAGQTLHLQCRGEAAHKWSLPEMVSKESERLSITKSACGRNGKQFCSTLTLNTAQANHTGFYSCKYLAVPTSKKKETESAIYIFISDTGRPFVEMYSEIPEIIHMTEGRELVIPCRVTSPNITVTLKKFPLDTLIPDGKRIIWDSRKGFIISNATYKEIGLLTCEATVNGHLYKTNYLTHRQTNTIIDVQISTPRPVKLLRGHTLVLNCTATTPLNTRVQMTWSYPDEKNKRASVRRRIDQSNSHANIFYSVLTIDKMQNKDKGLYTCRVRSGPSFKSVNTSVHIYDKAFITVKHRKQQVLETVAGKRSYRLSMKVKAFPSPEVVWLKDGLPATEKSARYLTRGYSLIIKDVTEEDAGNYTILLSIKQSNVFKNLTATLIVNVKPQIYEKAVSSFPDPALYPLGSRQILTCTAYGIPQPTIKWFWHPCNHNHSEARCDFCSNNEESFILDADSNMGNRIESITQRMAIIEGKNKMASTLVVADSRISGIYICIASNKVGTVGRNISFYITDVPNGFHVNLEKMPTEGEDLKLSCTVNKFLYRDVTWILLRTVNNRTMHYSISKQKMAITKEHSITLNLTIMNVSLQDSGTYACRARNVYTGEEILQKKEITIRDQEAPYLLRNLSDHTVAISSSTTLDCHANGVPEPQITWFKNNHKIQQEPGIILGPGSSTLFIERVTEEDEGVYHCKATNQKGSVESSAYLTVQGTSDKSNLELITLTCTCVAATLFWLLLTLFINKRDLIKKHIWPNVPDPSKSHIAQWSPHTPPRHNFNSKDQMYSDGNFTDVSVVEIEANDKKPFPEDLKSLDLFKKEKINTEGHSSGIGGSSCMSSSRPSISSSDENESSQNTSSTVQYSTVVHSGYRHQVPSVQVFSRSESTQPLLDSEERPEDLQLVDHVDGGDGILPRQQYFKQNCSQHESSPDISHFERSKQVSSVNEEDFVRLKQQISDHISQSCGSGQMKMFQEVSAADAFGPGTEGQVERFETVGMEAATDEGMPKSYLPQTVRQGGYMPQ

[2] = target: T1, VEGF-R1/Fc chimeric protein (R&D systems) (human, UniProt P17948 27-687, limits assumed); test: competition ELISA on captured VEGF-R1/Fc (100 ng/ml); competitor VEGF-A165 at 10 ng/ml, detected with biotinylated anti-VEGF-A165
T1 construct: Bought from R&D systems; also called VEGF-R1/Flt-1; soluble VEGFR1-Ig chimeric protein; not shown: human immunoglobulin Fc domain
T1 sequence (P17948 27-687 limits assumed, change not shown): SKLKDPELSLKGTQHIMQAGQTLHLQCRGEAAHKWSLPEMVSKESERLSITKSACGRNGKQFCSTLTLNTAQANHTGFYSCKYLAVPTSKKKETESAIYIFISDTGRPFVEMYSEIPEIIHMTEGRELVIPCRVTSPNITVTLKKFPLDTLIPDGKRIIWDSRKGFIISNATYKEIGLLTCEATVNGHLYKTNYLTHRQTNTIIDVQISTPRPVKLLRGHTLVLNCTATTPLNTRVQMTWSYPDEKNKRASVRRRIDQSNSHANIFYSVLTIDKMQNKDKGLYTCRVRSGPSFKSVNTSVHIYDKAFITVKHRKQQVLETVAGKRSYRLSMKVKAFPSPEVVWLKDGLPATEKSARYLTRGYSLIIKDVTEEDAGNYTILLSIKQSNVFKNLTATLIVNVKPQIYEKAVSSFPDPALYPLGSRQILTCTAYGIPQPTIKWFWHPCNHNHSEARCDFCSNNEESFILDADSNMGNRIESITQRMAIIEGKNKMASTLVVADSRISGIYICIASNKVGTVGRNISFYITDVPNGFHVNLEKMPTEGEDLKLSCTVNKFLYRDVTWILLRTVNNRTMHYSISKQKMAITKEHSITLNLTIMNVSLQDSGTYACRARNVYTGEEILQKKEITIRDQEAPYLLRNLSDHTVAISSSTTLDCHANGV
Protocol: 3. […] Plates were incubated for 90 min at room temperature.
5. VEGF-A₁₆₅ was added (indicated concentration in Buffer 20) and incubated at room temp for 1 hr. In competition experiments, VEGF-B₁₆₇ was added 30 min prior to the addition of VEGF-A₁₆₅. A range of VEGF-B₁₆₇ concentrations were used to compete with VEGF-A₁₆₅ at a final concentration of 10 ng/ml.
7. Biotinylated anti-VEGF-A₁₆₅ (10 ng/ml in Buffer 20, 100 μl) was added and incubated for 1 hr.

[3] = target: T2, VEGF-R2/Fc chimeric protein (R&D systems) (human, UniProt P35968 20-764); test: SPR (Biacore 2000), VEGF-B167 immobilised, receptor injected
T2 construct: Bought from R&D systems; not shown: human immunoglobulin Fc domain
T2 sequence (P35968 20-764 limits assumed, change not shown): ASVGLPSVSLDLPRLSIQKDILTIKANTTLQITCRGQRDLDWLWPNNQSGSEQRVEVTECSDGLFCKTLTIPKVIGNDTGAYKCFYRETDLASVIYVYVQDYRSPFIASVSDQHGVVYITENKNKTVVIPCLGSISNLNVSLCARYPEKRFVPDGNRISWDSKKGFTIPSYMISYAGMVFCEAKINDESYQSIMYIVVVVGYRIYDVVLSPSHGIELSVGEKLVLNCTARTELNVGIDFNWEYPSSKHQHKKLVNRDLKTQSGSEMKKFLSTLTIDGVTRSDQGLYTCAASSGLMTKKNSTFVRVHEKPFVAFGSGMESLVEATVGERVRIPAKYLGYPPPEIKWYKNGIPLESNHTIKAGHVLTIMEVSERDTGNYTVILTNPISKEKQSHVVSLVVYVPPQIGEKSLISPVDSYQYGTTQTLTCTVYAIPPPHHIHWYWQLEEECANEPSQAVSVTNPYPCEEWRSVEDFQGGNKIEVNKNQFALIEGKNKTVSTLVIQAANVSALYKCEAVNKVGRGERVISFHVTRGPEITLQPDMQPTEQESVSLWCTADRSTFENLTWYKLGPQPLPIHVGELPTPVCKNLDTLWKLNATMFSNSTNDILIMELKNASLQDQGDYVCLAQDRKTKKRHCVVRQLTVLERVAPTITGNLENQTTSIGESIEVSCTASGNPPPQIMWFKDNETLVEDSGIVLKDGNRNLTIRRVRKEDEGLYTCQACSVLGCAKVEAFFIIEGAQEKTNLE
Protocol: For control purposes binding of the receptors to VEGF-A₁₆₅ was also monitored. Both VEGF-B₁₆₇ and VEGF-A₁₆₅ were individually immobilised to a sensorchip using NHS/EDC chemistry according to the manufacturer's instructions. Briefly, 35 μl of NHS and EDC was injected onto the sensorchip at a flow rate of 5 μl/min to activate the sensor surface and enable covalent coupling of either VEGF-A₁₆₅ or VEGF-B₁₆₇. […] Post coupling, diaminoethane (50 mM, pH 9.0) was used to block any unbound activated sites on the sensor surface. Concentrated dimeric VEGF-B₁₆₇ (200 μg/ml) was diluted (1:10) in 20 mM sodium acetate and immobilized onto a separate channel on the sensorchip. Post coupling, diaminoethane (50 mM, pH 9.0) was used to block any unbound activated sites on the sensor surface.
At the end of each run, the surface of the sensorchip was regenerated using 2 cycles of phosphoric acid (0.1 M, 30 μl) at a flow of 50 μl/min. […] Both were diluted into 0.1% w/v BSA in PBS as a stock solution (50 μg/ml, storage −20° C.).

Molecule | ED50 of luciferase production in 293A12 cells with the chimeric receptor [1] | IC50 [2] | binding result [3]
VEGF-A (commercially available recombinant protein, Example 28) (from UniProt P15692 27-191) (ligand) | 0.01 to 0.05 µg/mL |  | 
B1 |  | ~0.02 µg/mL | no binding
